Experimental data published in PMC11880201.
Where two headings read alike, the source gives them in different places.

Legend:
INSM1 ZF1-ZF5 [1] = biological target: T1, INSM1 ZF1-ZF5 (human, UniProt Q01101 257-497); experiment: NMR titration
INSM1 ZF3 = INSM1 ZF3 (human, UniProt Q01101 346-396); experiment: NMR titration
CTCF ZF3-ZF7 = biological target: T2, CTCF ZF3-ZF7 (human, UniProt P49711 317-467); experiment: EMSA
T2 sequence: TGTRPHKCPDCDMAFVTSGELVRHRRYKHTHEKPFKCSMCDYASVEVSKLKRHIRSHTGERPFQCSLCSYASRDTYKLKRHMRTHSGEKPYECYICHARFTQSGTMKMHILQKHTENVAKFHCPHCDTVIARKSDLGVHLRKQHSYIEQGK

INSM1 ZF1;TEAD1-TEAD [2] = biological target: T3, INSM1 ZF1;TEAD1-TEAD (human;human?, UniProt Q01101;P28347 257-292;28-104, |); experiment: AUC
INSM1 ZF1-ZF5 [3] = biological target: T1, INSM1 ZF1-ZF5; experiment: EMSA
TEAD1-TEAD = TEAD1-TEAD (UniProt P28347 28-104); experiment: EMSA
TEAD1-TEAD L79A = TEAD1-TEAD L79A (UniProt P28347 28-104, L79A); experiment: EMSA
TEAD1-TEAD R75A = TEAD1-TEAD R75A (UniProt P28347 28-104, R75A); experiment: EMSA
INSM1 ZF1-ZF5 [4] = biological target: T1, INSM1 ZF1-ZF5; experiment: EMSA; remark: listed apart in the source
TEAD1-TEAD R80A = TEAD1-TEAD R80A (UniProt P28347 28-104, R80A); experiment: EMSA
INSM1 ZF1;TEAD1-TEAD [5] = biological target: T3, INSM1 ZF1;TEAD1-TEAD; experiment: EMSA

T1 sequence (Q01101 257-497): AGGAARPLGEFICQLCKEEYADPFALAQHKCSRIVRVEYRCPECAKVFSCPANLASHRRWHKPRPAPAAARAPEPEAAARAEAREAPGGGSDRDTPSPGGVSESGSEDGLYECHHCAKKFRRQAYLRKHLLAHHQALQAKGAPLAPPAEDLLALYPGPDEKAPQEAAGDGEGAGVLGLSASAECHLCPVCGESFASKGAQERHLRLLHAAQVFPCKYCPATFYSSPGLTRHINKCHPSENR
T3 sequence (Q01101 257-292, chain 1 of 2): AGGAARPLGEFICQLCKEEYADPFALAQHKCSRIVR
T3 sequence (P28347 28-104, chain 2 of 2): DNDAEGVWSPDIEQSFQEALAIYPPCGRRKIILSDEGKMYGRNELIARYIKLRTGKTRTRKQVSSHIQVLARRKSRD
Sequence of TEAD1-TEAD R80A (P28347 28-104 R80A): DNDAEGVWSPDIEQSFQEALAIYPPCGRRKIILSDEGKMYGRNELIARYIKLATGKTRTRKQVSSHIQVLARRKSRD
Sequence of TEAD1-TEAD R75A (P28347 28-104 R75A): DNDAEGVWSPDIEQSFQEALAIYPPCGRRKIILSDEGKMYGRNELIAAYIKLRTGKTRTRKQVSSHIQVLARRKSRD
Sequence of TEAD1-TEAD L79A (P28347 28-104 L79A): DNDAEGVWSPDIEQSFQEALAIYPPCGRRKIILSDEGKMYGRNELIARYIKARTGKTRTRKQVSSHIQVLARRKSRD
Sequence of INSM1 ZF3 (Q01101 346-396): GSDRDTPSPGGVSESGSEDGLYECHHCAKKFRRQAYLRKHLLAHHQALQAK
Sequence of TEAD1-TEAD (P28347 28-104): as the sequence (P28347 28-104, chain 2 of 2) above

B1: M2 (unlabeled) (dsDNA)
DNA 1: TACCACCAGGGGGCAGT
DNA 2: ACTGCCCCCTGGTGGTA
**Q.** What does the source list for B1?
**A.** binding result (INSM1 ZF1-ZF5 [1]): binds; binding result (INSM1 ZF3): binds

B2: M2 (FAM) (dsDNA)
DNA 1: TACCACCAGGGGGCAGT
DNA 2: ACTGCCCCCTGGTGGTA
**Q.** With B2 as the binder, how does the Kd (CTCF ZF3-ZF7) read?
**A.** Its Kd is 0.0984 µM.

B3: MCAT (unlabeled) (dsDNA)
DNA 1: AGTGGAATGTGC
DNA 2: GCACATTCCACT
**Q.** Does B3 bind (INSM1 ZF1;TEAD1-TEAD [2])?
**A.** Result: binds

B4: M1 (dsDNA)
DNA 1: TGTCAGGGGGCA
DNA 2: TGCCCCCTGACA
**Q.** With B4 as the binder, how does the Kd (INSM1 ZF1-ZF5 [3]) read?
**A.** Its Kd is 6 µM.

B5: MCAT (FAM) (dsDNA)
DNA 1: AGTGGAATGTGC
DNA 2: GCACATTCCACT
**Q.** B5 was tested. Which Kd (TEAD1-TEAD) did it give?
**A.** Its Kd is roughly 0.09 µM.

**Q.** Does B5 bind (TEAD1-TEAD L79A)?
**A.** Result: binds

**Q.** Does B5 bind (TEAD1-TEAD R75A)?
**A.** Result: binds

**Q.** What about the Kd (INSM1 ZF1-ZF5 [4]) of the same binder?
**A.** The Kd was 8.24 µM.

**Q.** Does B5 bind (TEAD1-TEAD R80A)?
**A.** Result: binds

**Q.** Does B5 bind (INSM1 ZF1;TEAD1-TEAD [5])?
**A.** Result: binds
